# Measurements from the RNAGym collection of RNA variant scans (doi:10.1093/molbev/msab373).
# B1: Azoarcus group I ribozyme (parent)
# chain: GUGCCUUGCGCCGGGAAACCACGCAAGGGAUGGUGUCAAAUUCGGCGAAACCUAAGCGCCCGCCCGGGCGUAUGGCAACGCCGAGCCAAGCUUCGGCGCCUGCGCCGAUGAAGGUGUAGAGACUAGACGGCACCCACCUAAGGCAAACGCUAUGGUGAAGGCAUAGUCCAGGGAGUGGCGAAAGUCACACAAACCGG
# Variants of: B1
# Test: reverse-splicing fitness (ratio to wild type); higher = more active; in vitro selection; Mg2+ level not given
# Method in brief: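 An in vitro group I ribozyme library with randomized positions was T7-transcribed and gel-purified. In triplicate, 10 pmol RNA in EPPS pH 7.5 was reacted with 50 pmoles of a 30-nt RNA substrate for 1 h at 37 °C across several added MgCl2 levels (1–48 mM), then stopped with EDTA. Products were reverse transcribed from a substrate-complementary primer, PCR-amplified and sequenced (HiSeq 4000). Fitness is a variant's read proportion after selection over that before, normalised to wild type.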
row,Variant,reverse-splicing fitness
1,C82U A111U A120G A145C C150U C169A,0.00726
2,C82U A111U A120G A145C C150U C169G,0.00792
3,C82U A111U A120G A145C C150U C169U,0.00734
4,C82U A111U A120C C150U C169U U176A,0.0177
5,C82U A111U A120C C150U C169U U176C,0.0157
6,C82U A111U A120C C150U C169U U176G,0.00524
7,C82U A111U A120C C150A C169G,0.0083
8,C82U A111U A120C C150A C169U,0.0114
9,C82U A111U A120C C150A C169A,0.00966
10,C82U A111U A120C C150A C169A U176A,0.0182
11,C82U A111U A120C C150A C169A U176G,0.00592
12,C82U A111U A120C C150A C169A U176C,0.0182
13,C82U A111U A120G A145C C169A U176A,0.00993
14,C82U A111U A120G A145C C169A U176C,0.00603
15,C82U A111U A120G A145C C169A U176G,0.00391
16,C82U A111U A120G A145C C150U C169U U176C,0.00897
17,C82U A111U A120G A145C C150U C169U U176G,0.00401
18,C82U A111U A120G A145C C150U C169U U176A,0.0187
19,C82U A111U A120G A145G C150A C169A U176A,0.0153
20,C82U A111U A120G A145G C150A C169A U176C,0.02
21,C82U A111U A120G A145G C150A C169A U176G,0.00564

row,Variant,reverse-splicing fitness
1,C82U A111U A120G A145C C169A,0.007
2,C82U A111U A120G A145C C169U,0.00777
3,C82U A111U A120G A145C C169G,0.00962
4,C82U A111U A120C C169A U176A,0.0152
5,C82U A111U A120C C169A U176G,0.00513
6,C82U A111U A120C C169A U176C,0.0138
7,C82U A111U A120C C150A C169U U176C,0.0203
8,C82U A111U A120C C150A C169U U176G,0.00688
9,C82U A111U A120C C150A C169U U176A,0.0229
10,C82U A111U A120G A145C C169U U176C,0.0108
11,C82U A111U A120G A145C C169U U176G,0.00376
12,C82U A111U A120G A145C C169U U176A,0.0194
13,C82U A111U A120C C150G C169U,0.00868
14,C82U A111U A120C C150G C169G,0.00613
15,C82U A111U A120C C150G C169A,0.00864
16,C82U A111U A120G A145G C150A C169G,0.00828
17,C82U A111U A120G A145G C150A C169A,0.0105
18,C82U A111U A120G A145G C150A C169U,0.00848
19,C82U A111U A120G A145G C150G U176A,0.0062
20,C82U A111U A120G A145G C150G U176C,0.00919
21,C82U A111U A120G A145G C150G U176G,0.00543

row,Variant,reverse-splicing fitness
1,C82U A111U A120G A145C C169G U176C,0.0149
2,C82U A111U A120G A145C C169G U176G,0.004
3,C82U A111U A120G A145C C169G U176A,0.0262
4,C82U A111U A120C C150G C169U U176A,0.0091
5,C82U A111U A120C C150G C169U U176G,0.00538
6,C82U A111U A120C C150G C169U U176C,0.0149
7,C82U A111U A120G A145C C150A U176C,0.00836
8,C82U A111U A120G A145C C150A U176A,0.00746
9,C82U A111U A120G A145C C150A U176G,0.00379
10,C82U A111U A120C C150U U176A,0.011
11,C82U A111U A120C C150U U176C,0.0158
12,C82U A111U A120C C150U U176G,0.00696
13,C82U A111U A120G A145G C150A C169G U176G,0.00481
14,C82U A111U A120G A145G C150A C169G U176A,0.0152
15,C82U A111U A120G A145G C150A C169G U176C,0.0253
16,C82U A111U A120G A145C C150G C169U U176C,0.0113
17,C82U A111U A120G A145C C150G C169U U176G,0.00495
18,C82U A111U A120G A145C C150G C169U U176A,0.0142
19,C82U A111U A120G A145G C150G C169A U176G,0.00764
20,C82U A111U A120G A145G C150G C169A U176A,0.0128
21,C82U A111U A120G A145G C150G C169A U176C,0.0113

row,Variant,reverse-splicing fitness
1,C82U A111U A120G A145G,0.0162
2,C82U A111U A120G A145C,0.0134
3,C82U A111U A120C C150A C169G U176G,0.00669
4,C82U A111U A120C C150A C169G U176A,0.0178
5,C82U A111U A120C C150A C169G U176C,0.0181
6,C82U A111U A120G A145G C150U C169A,0.00995
7,C82U A111U A120G A145G C150G C169G U176C,0.0107
8,C82U A111U A120G A145G C150G C169G U176G,0.00498
9,C82U A111U A120G A145G C150G C169G U176A,0.00842
10,C82U A111U A120G A145C C150G C169A U176A,0.00764
11,C82U A111U A120G A145C C150G C169A U176G,0.00478
12,C82U A111U A120G A145C C150G C169A U176C,0.006
13,C82U A111U A120C C169G U176A,0.0148
14,C82U A111U A120C C169G U176C,0.018
15,C82U A111U A120C C169G U176G,0.0049
16,C82U A111U A120G A145C C150U C169A U176A,0.0102
17,C82U A111U A120G A145C C150U C169A U176C,0.00544
18,C82U A111U A120G A145C C150U C169A U176G,0.00482
19,C82U A111U A120G A145C C150A C169U U176G,0.00474
20,C82U A111U A120G A145C C150A C169U U176A,0.0189
21,C82U A111U A120G A145C C150A C169U U176C,0.00977
